Patent US20240355418A1, “MULTIPLEX, TEMPORALLY RESOLVED MOLECULAR SIGNAL RECORDER AND RELATED METHODS” (University of Washington, priority 2021, published 2024)

B1: 12×TAPE-1: 12 repeats of the 14-bp TAPE-1 monomer, SEQ ID NO: 118 (nucleic acid)
DNA: CACCNNNNNNNNGGATGATGGTGAGCACGTGATGGTGAGCACGTGATGGTGAGCACGTGATGGTGAGCACGTGATGGTGAGCACGTGATGGTGAGCACGTGATGGTGAGCACGTGATGGTGAGCACGTGATGGTGAGCACGTGATGGTGAGCACGTGATGGTGAGCACGTGATGGTGAGCACGTGATGGTGAGCGCTTTAAGGC

What was measured:
[1] = tested on: HEK293T and monoclonal lineage tracing cell line (iPE2(+) LT(+)); test: Cell doubling time with or without Doxycycline; type: cell-based
Source text: (A). Cell doubling times measured for HEK293T and the monoclonal lineage tracing cell line (iPE2(+) LT(+)), with or without Doxycycline (Dox). […] P values were obtained using the two-tailed Student's t-test with Bonferroni correction: only *P<0.05 are shown. The center and error bars are mean and standard deviations, respectively, from n=3 independent experiments.

[2] = tested on: PE2(+) 3N-TAPE-1-pegRNA(+) HEK293T; test: Editing and recovery of 12× and 20×TAPE-1 arrays, 40 days, PacBio sequencing; type: cell-based; conditions: 40 days culture
Source text: To evaluate the extent to which such issues might be limiting in practice, a synthetic minisatellite in the form of 12 or 20 repeats of the 14-bp TAPE-1 monomer was generated. 12×TAPE-1 was synthesised as single-stranded DNA (IDT) and 20×TAPE-1 as a plasmid (GenScript). PCR amplicons of each array were cloned into the piggyBAC vector via Gibson assembly. Of note, cloned constructs were used “as is”, even though it is possible that some degree of variation in repeat number was already present (FIG. 11A-11B). […] PCR amplification of TAPE-1 was followed by standard library construction and sequencing on the Pacific Bioscience Sequel platform to obtain circular consensus sequencing (CCS) reads. […]
CCS reads were grouped within each replicate based on a degenerate 8-bp barcode (TargetBC), as these presumably derived from the same integration. On average, each TargetBC group had 3.1±3.4 and 3.8±5.7 reads for ˜ 12×TAPE-1 and ˜20×TAPE-1, respectively.
For long-read amplicon sequencing library preparation, a two-step PCR protocol was used: the first PCR reaction (KAPA Robust polymerase) included 1.5 uL of cell lysate, 0.04 to 0.4 uM of forward and reverse primers in a final reaction volume of 25 μL. […] After the first PCR step, products were assessed on 6% TBE-gel and purified using 0.6×AMPure (Beckman Coulter) and added to the second PCR reaction that appended PacBio sample indexes. […]

| Molecule | Effect on cell doubling time [1] | Edits per array [2] | Repeats of TAPE-1 monomers recovered (average) [2] |
| --- | --- | --- | --- |
| C[C@H]1c2cccc(O)c2C(=O)C2=C(O)[C@]3(O)C(=O)C(C(N)=O)=C(O)[C@@H](N(C)C)[C@@H]3[C@@H](O)[C@@H]21 [Dox, Doxycycline hyclate] | lengthened the cell doubling time |  |  |
| B1 |  | 4.5±1.3 edits | 8.4±3.3 repeats |
